The target in the data set is T1, ULight-labeled 4E-BP1 fragment peptide GSK3 substrate (non-primed).
T1 chain: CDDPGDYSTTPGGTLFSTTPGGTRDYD

B1: GSK3α (Carna) (protein)
chain: MSGGGPSGGGPGGSGRARTSSFAEPGGGGGGGGGGPGGSASGPGGTGGGKASVGAMGGGVGASSSGGGPGGSGGGGSGGPGAGTSFPPPGVKLGRDSGKVTTVVATLGQGPERSQEVAYTDIKVIGNGSFGVVYQARLAETRELVAIKKVLQDKRFKNRELQIMRKLDHCNIVRLRYFFYSSGEKKDELYLNLVLEYVPETVYRVARHFTKAKLTIPILYVKVYMYQLFRSLAYIHSQGVCHRDIKPQNLLVDPDTAVLKLCDFGSAKQLVRGEPNVSYICSRYYRAPELIFGATDYTSSIDVWSAGCVLAELLLGQPIFPGDSGVDQLVEIIKVLGTPTREQIREMNPNYTEFKFPQIKAHPWTKVFKSRTPPEAIALCSSLLEYTPSSRLSPLEACAHSFFDELRCLGTQLPNNRPLPPLFNFSAGELSIQPSLNAILIPPHLRSPAGTTTLTPSSQALTETPTSSDWQSTDATPTLTNSS
The protein B1 registered a S/B, LANCE Ultra kinase assay, 20 nM enzyme, n = 1 of 35.7 and a S/B, LANCE Ultra kinase assay, 20 nM enzyme, n = 2 of 33.2.
